Where two headings read alike, the source gives them in different places.

In test [1] the target is human-thrombin (product of Sigma) (human) (UniProt P00734).
For test [2] the target is unchanged. Briefly: chromogenic thrombin inhibition assay, potency column of Table 3 (hirudin HV-1 = 1).

For the substance hirudin HV-1, the results for the Potency in test [1] and in test [2] were 95 and 1, respectively.
In test [1], “peptide (A) Gly-Asp-Phe-Glu-Glu-Ile-Pro-Glu-Tyr-Tyr-Leu-Gln” came in with a 50% Inhibition Concentration (clotting assay) of 14700 ng/mL and a Potency of 0.45.
Taken in the same sequence, the figures for “peptide (B) Gly-Asp-Phe-Glu-Glu-Ile-Pro-Tyr-Tyr-Tyr-Leu-Gln” were 13800 ng/mL and 0.48.
On the same counts, the results for “peptide (C) Suc-Gly-Asp-Phe-Glu-Pro-Ile-Pro-Glu-Tyr-Tyr-Leu-Gln-OH” are 3750 ng/mL and 1.76.
In test [1], “peptide (I) Suc-Phe-Glu-Pro-Ile-Pro-Glu-Tyr-Tyr-OH” had a 50% Inhibition Concentration (clotting assay) of 20000 ng/mL and a Potency of 0.83.
Taken in the same sequence, the figures for “peptide (J) Suc-Phe-Glu-Pro-Ile-Pro-Glu-Tyr-Tyr-NH2” were 98400 ng/mL and 0.07.
On the same counts, the results for “peptide (K) Suc-Phe-Glu-Pro-Ile-Pro-Glu-Tyr-Tyr-NH(CH2)2COOH” are 30200 ng/mL and 0.21.
Turning to “peptide (L) Suc-Phe-Glu-Pro-Ile-Pro-Glu-Tyr-Tyr-NH(CH2)4COOH”, in test [1], the 50% Inhibition Concentration (clotting assay) was 15600 ng/mL and the Potency is 0.42.
Taken in the same sequence, the figures for “peptide (N) Suc-Phe-Glu-Pro-Ile-Pro-Glu-Tyr-Tyr-NH(CH2)3OH” were 103000 ng/mL and 0.06.
Taken in the same sequence, the figures for “peptide (O) Suc-Phe-Glu-Pro-Ile-Pro-Glu-Tyr-Tyr-(L)Asu(OMe)OMe” were 35300 ng/mL and 0.19.
“peptide (P) Suc-Phe-Glu-Pro-Ile-Pro-Glu-Tyr-Tyr-Leu-ol”: in test [1], the 50% Inhibition Concentration (clotting assay) came to 104000 ng/mL and the Potency was 0.06.
On the same counts, the results for “peptide (R) Suc-Phe-Glu-Pro-Ile-Pro-Glu-Tyr-Tyr-Leu-NHEt” are 36100 ng/mL and 0.18.
As for “peptide (S) Suc-Phe-Glu-Pro-Ile-Pro-Glu-Tyr-Tyr-Leu-Tau-NH2”, in test [1], the 50% Inhibition Concentration (clotting assay) was 99600 ng/mL and the Potency turned out to be 0.07.
In the case of “peptide (U) Suc-Phe-Glu-Pro-Ile-Pro-Glu-Tyr-Tyr-Leu-(D)Asu(OMe)OMe”, in test [1], the 50% Inhibition Concentration (clotting assay) turned out to be 47500 ng/mL and the Potency amounted to 0.14.
On the same counts, the results for “peptide (V) Suc-Phe-Glu-Pro-Ile-Pro-Glu-Tyr-Tyr-Leu-(L)Asu(OMe)OMe” are 30400 ng/mL and 0.22.
Taken in the same sequence, the figures for “peptide (W) Suc-Phe-Glu-Pro-Ile-Pro-Glu-Tyr-Tyr-Leu-(D)Asu(NH2)NH2” were 35000 ng/mL and 0.19.
On the same counts, the results for “peptide (Y) Suc-Phe-Glu-Pro-Ile-Pro-Glu-Tyr-Tyr-Leu-NHPO(OH)2” are 153000 ng/mL and 0.04.

These data come from patent publication US5767235.
